The record followed here is the DeepSol protein solubility set.

The data set is described as follows: soluble on expression in E. coli; label from the status in PepcDB or PDB records.
“MSEVESQQSQETNGSSKFDVPEIELIIKASTIDGRRKGACLFCQEYFMDLYLLAELKTISLKVTTVDMQKPPPDFRTNFEATHPPILIDNGLAILENEKIERHIMKNIPGGYNLFVQDKEVATLIENLYVKLKLMLVKKDEAKNNALLSHLRKINDHLSARNTRFLTGDTMCCFDCELMPRLQHIRVAGKYFVDFEIPTHLTALWRYMYHMYQLDAFTQSCPADQDIINHYKLQQSLKMKKHEELETPTFTTYIPIDISE”: the “soluble on expression in E. coli” value is on record as “soluble”.

On to “MGSDKIHHHHHHMTETTSSPQHYLGWDIGGANLKVALVRPDGIAVKVIQVPCPLWQGMDRLDAAIDLALAELGGPGGAKHSVTMTGELADIFPDRASGVWEIALRTHAMLGSELCFFAGASGFVPLAQVQQHANAIASANWLASAAFVATKLQQGLFIDIGSTTADFVLLHDGRPVNRGQTDAERMQHEELVYTGVARTSLMALASRIPFAGQWQNVAAEHFATTADVYRLTGELDPAEDMAATADGAGKSMDETCRRLARMVGRDADDADKTAWVHLAQAFRQQQLAILRDAVLCNLSRNVVRPGAPFIGAGAGVFLVRELAQQLGHEFLAASSLLKAESDQARNWAGVCLPAYAVANLGITANSQERAC”, for which the “soluble on expression in E. coli” value is recorded as “not soluble”.

For “GPGSMCNDDARQEGVQWPSSQQLAALADIEGDVQMKAAQLGLLSSEYRANIARVLHHYEPQAATFRTIIYASEQKRKAVERELVWTERIALLQEQRCGTTIVSTRDLMVLEREPLHPVECSLKECYQKLENVAYNELCVLRNYEYPPRQAVATMRMIMRVRGEEDLSWENVQVVLSENYFYTFFVSRMRTLLQKRLPDDVLEELEQYCLNPEHAPEALAVVSVPLGVIGSLLHAVRDYFQVMDLVKRPVEPMSVEERRKKAGELRRALQTLKEDAATATEGMADLKARIASKFVTVRDEYDDTMCPLHDDLEKKTEDFLKVLSGDIPAEEGATGEGECPDAM”, the “soluble on expression in E. coli” value is “not soluble”.

“MGSDKIHHHHHHMSLASVFNIAGSGMSAQSTRLNTVASNIANAETVSSSVDKTYRARHPVFSTMFQQAQGDSGSLFADQDSSGAGVQVLGIVEDQSSLMPRYEPNHPAADANGYVYYPNVNVVEEMADMISASRAFQTNAEMMNTAKQMMQKVLTLGQ”: the “soluble on expression in E. coli” value is given as “not soluble”.

Take “GPGSMRRLFPTAKLLGSTTGIRLASMKSSDKERLERLVEEVNGIKSKLKVLEESKAANGLVDLYASRKMKRLDIKRILGIFNDRAYHAPIFCHKALPIILAHFITGLDRLPSGLNAMPSILAVRATLLRSFQKLINCKIPATDDQVQHFRRVLEDIDEEHAERNLLQTMAFGILELKEYVSSHRRALVDLKKTSERWASIPMTEENVLTYAEIQDIQAPLDSVNRCMITYNFISRMFLNHDPDMTMSSNPRRIGMVDLEMNLEHVVRNAVDEAKQICTDHYGDCPDTEFELTSDTKAFRFPYMSTTIRYIILELMKNAFRATVDSHMKRNDVGMVTCADMPPVRVLINLQEGTEHACICISDEGMGMTDEALTMAMAYSYTSVSKPALQLGESGERCASTAPSPLAGYGYGLPMSRVYAQSLGGDLLLQTMEGYGTRAYYYIKIADAQPLCDEETK”: the “soluble on expression in E. coli” value is “soluble”.

Take “MGSDKIHHHHHHMSLTDGPYAGPPQPDVVDPSGGANQTRVRAYNERLVMSLVRRHGSLSKAEIARRSGLSAQTASVIMRSLEADGLLVRGAPVRGRVGQPSIPMRLNPDAVYSFGVKIGRRSADLVLMDFLGTIRLHLHQIHTYPLPEEIVSFIVGGIGKLEGQLGPGERGRIAGVGIATPFELWNWSEEVGAPREEMDRWRDFDLQAAVASRIRHPVFLQNDGTSACGAELAFGVGASYPDFVYFYIGSFIGGGVVINSALFSGRTGTAGAVGPLPVAGKDGKSTQLLKIASVFVLEKLLRERGIDPEPLWYSADDWIDFGEPLEIWIQDAAAALAQAVVSAVSVVDFSAAVIDGGFPPWVRARLLAATRKALQTLDLQGVTVPDLVEGTVGSHARAIGGASLPLFSRYLLDTNVLFKEL”: the “soluble on expression in E. coli” value is “not soluble”.

“MGHHHHHHSHMEIPPTNYPASRAALVAQNYINYQQGTPHRVFEVQKVKQASMEDIPGRGHKYHLKFAVEEIIQKQVKVNCTAEVLYPSTGQETAPEVNFTFEGETGKNPDEEDNTFYQRLKSMKEPLEAQNIPDNFGNVSPEMTLVLHLAWVACGYIIWQNSTEDTWYKMVKIQTVKQVQRNDDFIELDYTILLHNIASQEIIPWQMQVLWHPQYGTKVKHNSRLPKEVQLE”: the “soluble on expression in E. coli” value was “not soluble”.

Turning to “AAKVHVDIEADSPFIKSLQKAFPSFEVESLQVTPNDHANARAFSHLATKLIEQETDKDLILDIGSAPSRRMMSTHKYHCVCPMRSAEDPERLDSYAKKLAAASGKVLDREIAGKITDLQTVMATPDAESPTFCLHTDVTCRTAAEVAVYQDVYAVHAPTSLYHQAMKGVRTAYWIGFDTTPFMFDALAGAYPTYATNWADEQVLQARNIGLCAASLTEGRLGKLSILRKKQLKPCDTVMFSVGSTLYTESRKLLRSWHLPSVFHLKGKQSFTCRCDTIVSCEGYVVKKITMCPGLYGKTVGYAVTYHAEGFLVCKTTDTVKGERVSFPVCTYVPSTICDQMTGILATDVTPEDAQKLLVGLNQRIVVNGRTQRNTNTMKNYLLPIVAVAFSKWAREYKADLDDEKPLGVRERSLTCCCLWAFKTRKMHTMYKKPDTQTIVKVPSEFNSFVIPSLWSTGLAIPVRSRIKMLLAKKTKRELIPVLDASSARDAEQEEKERLEAELTREALPPLVPIAPAETGVVDVDVEELEYHAGA”, the “soluble on expression in E. coli” value is on record as “not soluble”.

For “MSTILSLAPQNVWKHFYSLTQIPRPSGHMEKVTEFLINFGKGLGLESFVDEAGNVIIRKPATPGMENRKGVILQAHMDMVPQKNNDTVHDFEKDPIETYIDGDWVKAKGTTLGADNGLGVAAIMAVLEANDLKHGPLEALITKDEETGMYGAFGLKPGTVNGEILLNLDSEDEGELYIGCAGGMDVTATLEYKEVAPEEGDVAVKVSLKGLRGGHSGLEINEGRANANKLLVRFVREAVASYEARLVSWDGGNMRNAIPREACAVLAIPAENEEELLGLVKYCEDLFNEEFSAIETPISFTAERVELPAGEVPEEIQDNLIDAIFACQNGVTRMIPTVPDTVETSSNLAIITIGGGKAEIKILARSSSDSMKEYLTTSLESCFSMAGMKVEMTGGYSGWQPNVESPILHAMKESYKQQFGVEPAVKVIHAGLECGIIGAIIPGLDMISFGPTLRSPHSPDERALIPTVQKFYDFLVATLAQTPTKLEHHHHHH”, the “soluble on expression in E. coli” value is recorded as “soluble”.

Consider “SLEQPGFKLRAVTIHFEASADVDSIEDAVFKAKEAIDRLTAEKGVEVWSLRAVLTPGESVADSLGRVAELEPLVEEEGVFINLGLHNASADDWEAVSGIVESGFFLSFALENGTWEEARSYSKLLHRLADKSPDLAVHIGFNPLGTHILTPYFPLATSPGEQRTVTVALLYPRYLLESFRKGGLQAVIDSMVDAAQLSGEYGKAVAKDVEGSFAGVDLSISPWMEESSLALVEEVGGVRLPEPGFAYGLRLVNEAIAAAASKTGYAVGFNEVQLPVAEDSKLKVRVAELETSARDLLRLSGVCLAGLDMAVIPASLDGVAGLLLEARAYSRAKGSIVGVRLIPLDGVEPGDEVFLKRFGEVPVIPI”, for which the “soluble on expression in E. coli” value was “soluble”.

As to “MLTVDLSGKKALVMGVTNQRSLGFAIAAKLKEAGAEVALSYQAERLRPEAEKLAEALGGALLFRADVTQDEELDALFAGVKEAFGGLDYLVHAIAFAPREAMEGRYIDTRRQDWLLALEVSAYSLVAVARRAEPLLREGGGIVTLTYYASEKVVPKYNVMAIAKAALEASVRYLAYELGPKGVRVNAISAGPVRTVAARSIPGFTKMYDRVAQTAPLRRNITQEEVGNLGLFLLSPLASGITGEVVYVDAGYHIMGMELEG”, the “soluble on expression in E. coli” value was “soluble”.

For “MAHHHHHHMKVENSKMEVKREQSYSNEDEEINEEDLNWWEQENLRIAMKGERRWETLAHNGVLFPPEYEPHGIPIFYDGREFKMTPEEEEVATMFAVMKEHDYYRMEVFRRNFFESWREILGKRQHPIRRLELCDFEPIYQWYLVQREKKLSRTKEEKKAIKEKQDAEAEPYRYCVWDGRREQVANFRVEPPGLFRGRGKHPLMGKLKVRVQPEDITINIGETAEVPVPPAGHKWAAVQHDHTVTWLAMWRDNVAGNMKYVMLAPSSSVKGQSDMVKFEKARKLKDKVDDIRASYMEAFKSNDLHVAQRAVAMYFIDRLALRVGNEKGEDEADTVGCCSLRVEHIQLMPDNIVRFDFLGKDSIRYQNDVAVLPEVYALLQRFTCRKSPGMDIFDQLNPTQLNDHLKSFMDGLSAKVFRTYNASITLDRWFKEKPVDPKWSTADKLAYFNKANTEVAILCNHQKSVSKNFKLQMMQLTTKSEYTRKTLELLEKAEVTAKKKSVEEAAKEFLEEQDRMQREWLESYGTEEQKKEFEEIVAKRAAPRVRSEKKSSSGTKKAKSASGKTRAATKKKSAKKSGKASSKKAARKSSKKAPKRSKEEDEDDVPLMSMAAKTKKTAGVKRQRAVKVASDDDDVPLAALRV”, the “soluble on expression in E. coli” value is “not soluble”.

Take “SLRFYAACLASYNNGVLHGRWIDASSDTDEMQEEVSAMLRASRFPNVMVKCPNCEGRLELCTVCDGGSREVPSAEEWAIHDYDGLPSSLGEYPGLDKIAAFVELCEEHDMTGEDMAAIVSHFGSVEYAKEELGNNFVGVHESFRAYAEELADEMLSAHDIKADHPLSQYFDYEAYARDLRHSASAVELDEGVAVFCV”: the “soluble on expression in E. coli” value is reported as “soluble”.

“MSLKLLIFEYATASGIDDPEIFLEGRSMLEALLTDFRDFDVEFLLSERFADMDIGAGFRPSIIGDLDEWLQENLEGFDACIFIAAEEGMELYRLTRIVEESGVLLLGSSGDAVRTCSDKRLTYRALDGRVPLIGTYEPEEIVDVPSRLIVKPADGVACQGIRILEPGDEPDLSGDMIIQDFIEGESVSVSLLSNGEKALPLSLNRQDIIMAGSELEYNGGSAPVDHEMREDAFTVARRAVESITGLRGYVGVDLILADEPYVVEINSRITTPYIGLRRVTEANLGHLILESVLGRLPSGVKFNGTASFRKGIDGMVVEVTEGFRGYEGHHHHHH”: the “soluble on expression in E. coli” value is “soluble”.

“MKITVPATSANIGPGFDSVGVAVSKYLTIEVLEPADVWFIEHDLGDIPSDENNLLISTALQVKSDLQPHKLVMASDIPLAR”: the “soluble on expression in E. coli” value is “not soluble”.

“MSFQVSVAVNDGPFQKKSVTPNTTIGDLNNDAILIWKDTAIVYDISDESKNFGPTVTLEQLGVTQISMVYIYTTAFPCPSGDLRSIVPAQVRLISQFASAASSIFNGQSSSSAQSAQRTRRVEQDDEGEKSMFSRKLLDSPATFKALSENMFFRLKNEPHKLGYGLPELVERFLAKKDMTYKEFEQMFRSYVEEEVHKEEIIKNNPNSAEAKMFLEAKRNKELIDEQYLHSMTHHPEDMIAVTMLYINLTINGVPVKAFIDSGAQKSIMSMACAERCGLNGLIDRRFQSMARGVGGTEKIEGKIHLCDVKVEDAHFSCPFEVMARREMDLLIGLNVLRKHGCCINLKTSRLEFGNGTTTPFLQSNEIDSHLKEIMALPEEEMQFEDGST”: the “soluble on expression in E. coli” value is recorded as “not soluble”.

Regarding “SKRFVIGIGGVTNGGKTTLAKSLQKHLPNCSVISQDDFFKPESEIDIDENGFLQYDVLEALNMEKMMSAVSCWMENPGSSAGPAALESAQGVPILIIEGFLLFNYKPLDTIWNRSYFLTVPYEECKRRRSTRVYEPPDPPGYFDGHVWPMYLKHRQEMSSITWDIVYLDGTRSEEDLFSQVYEDVKQELEKQNGL”, the “soluble on expression in E. coli” value is listed as “soluble”.

With “MARQLRAEQTRATIIGAAADLFDRRGYESTTLSEIVAHAGVTKGALYFHFAAKEDLAHAILEIQSRTSRRLAKDLDGRGYSSLEALMRLTFGMARLCVQGPVLRAGLRLATAGVPVRPPLPHPFTEWREIATSRLLDAVRQSDVHQDIDVDSVAHTLVCSVVGTRVVGGTLEPAGREPRRLAEMWYILIRGMVPVTRRARYVTLAARLEQETGTA”, the “soluble on expression in E. coli” value is “soluble”.
